For two molecules, interaction score results are on record in publication PMC10397247.

Common to all, as to assay: two-hybrid library CCNG1;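 further: natural log of median RNA to DNA barcode read ratio; higher means stronger binding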
The target of one test is T1, P8bH1.
T1 chain: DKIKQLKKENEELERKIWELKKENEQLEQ

Another test addresses T2, P6bH1.
T2 chain: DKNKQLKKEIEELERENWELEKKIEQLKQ

In another test the target is T3, P4bH1.
T3 chain: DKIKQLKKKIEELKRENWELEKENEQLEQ

Another test addresses T4, P9bH1.
T4 chain: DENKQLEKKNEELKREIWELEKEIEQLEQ

The target of another test is T5, P3bH1.
T5 chain: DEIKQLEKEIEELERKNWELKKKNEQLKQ

For the next test, the target named is T6, P5bH1.
T6 chain: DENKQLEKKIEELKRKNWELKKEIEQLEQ

Another test addresses T7, P7bH1.
T7 chain: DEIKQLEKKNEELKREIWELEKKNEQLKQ

The target of another test is T8, 4H48-bA.
T8 chain: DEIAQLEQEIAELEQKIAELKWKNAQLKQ

Another test concerns the target T9, 4H918-bN.
T9 chain: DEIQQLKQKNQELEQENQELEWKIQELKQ

Another test addresses T10, 4H3632-bA.
T10 chain: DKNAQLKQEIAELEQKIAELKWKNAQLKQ

The next test addresses T11, 4H496-bA.
T11 chain: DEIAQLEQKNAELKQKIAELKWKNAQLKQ

The target of the next test is T12, 4H342-bA.
T12 chain: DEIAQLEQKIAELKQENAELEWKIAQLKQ

For another test, the target named is T13, O3.
T13 chain: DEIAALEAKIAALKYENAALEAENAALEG

The next test deals with T14, 4H491-bA.
T14 chain: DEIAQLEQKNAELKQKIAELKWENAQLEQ

For the molecule DEIKQLEKEIEELERKNWELKKKNEQLKQ [P3bH1], the interaction score was 0.173 in the test with P8bH1; 0.419 with P6bH1; 1.13 with P4bH1; -0.408 in the test with P9bH1; -0.241 in the test with P3bH1; 1.1 with P5bH1. Moreover, the interaction score in the test with P7bH1 is -0.271.
As to DEIAQLEQKIAELKQENAELEWKIAQLKQ [4H342-bA], the interaction score with 4H48-bA is 0.0458; with 4H918-bN, -0.0267; in the test with 4H3632-bA it was 0.725; with 4H496-bA, 2.13; with 4H342-bA, 1.64; in the test with O3, -1.6. Further, the interaction score in the test with 4H491-bA was 1.5.
